Key:
[1] = target: T1, sterol regulatory element-binding protein 1 (hSREBF1, prey15532), prey fragments (Human, UniProt P36956 1-1147); experiment: yeast two-hybrid screen, bait TM_v1 (pB6), Human CEMC7 Random Primed prey library; table of bait-prey interactions
T1 construct: also called SREBP1; hSREBP 1
T1 sequence: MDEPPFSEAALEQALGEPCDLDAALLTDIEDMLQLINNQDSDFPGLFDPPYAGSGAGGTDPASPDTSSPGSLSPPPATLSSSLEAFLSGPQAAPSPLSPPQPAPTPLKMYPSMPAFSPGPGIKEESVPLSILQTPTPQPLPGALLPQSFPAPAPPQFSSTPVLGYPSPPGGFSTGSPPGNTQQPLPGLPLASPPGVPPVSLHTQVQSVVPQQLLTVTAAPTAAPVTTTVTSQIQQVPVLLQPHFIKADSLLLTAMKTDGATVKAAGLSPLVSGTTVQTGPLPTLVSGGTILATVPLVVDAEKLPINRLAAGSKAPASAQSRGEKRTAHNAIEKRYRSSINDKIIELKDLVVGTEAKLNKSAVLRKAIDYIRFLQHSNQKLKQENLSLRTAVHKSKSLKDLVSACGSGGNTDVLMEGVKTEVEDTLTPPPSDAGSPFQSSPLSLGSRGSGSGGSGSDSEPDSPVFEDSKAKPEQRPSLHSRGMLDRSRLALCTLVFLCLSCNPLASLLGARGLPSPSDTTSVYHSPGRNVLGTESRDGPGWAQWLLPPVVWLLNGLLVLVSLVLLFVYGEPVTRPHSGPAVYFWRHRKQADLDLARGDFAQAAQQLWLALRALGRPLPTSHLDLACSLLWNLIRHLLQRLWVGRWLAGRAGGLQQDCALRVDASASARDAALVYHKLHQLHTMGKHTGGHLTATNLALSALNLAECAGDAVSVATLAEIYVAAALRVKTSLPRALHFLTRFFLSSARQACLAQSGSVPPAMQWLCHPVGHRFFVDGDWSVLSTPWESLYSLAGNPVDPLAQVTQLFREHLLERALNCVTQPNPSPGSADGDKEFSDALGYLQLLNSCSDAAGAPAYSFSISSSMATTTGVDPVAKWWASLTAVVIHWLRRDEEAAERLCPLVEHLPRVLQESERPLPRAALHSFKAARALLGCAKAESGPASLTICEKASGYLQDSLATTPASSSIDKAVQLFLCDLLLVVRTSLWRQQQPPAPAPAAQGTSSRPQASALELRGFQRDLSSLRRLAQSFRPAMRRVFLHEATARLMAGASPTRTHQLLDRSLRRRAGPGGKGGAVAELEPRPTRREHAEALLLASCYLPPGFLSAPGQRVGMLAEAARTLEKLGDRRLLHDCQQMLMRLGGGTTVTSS

[2] = target: T2, sterol regulatory element binding protein 2 (hSREBF2, hgx33), prey fragments (Human, UniProt Q12772 1-1141); experiment: as above
T2 construct: also called SREBP2
T2 sequence: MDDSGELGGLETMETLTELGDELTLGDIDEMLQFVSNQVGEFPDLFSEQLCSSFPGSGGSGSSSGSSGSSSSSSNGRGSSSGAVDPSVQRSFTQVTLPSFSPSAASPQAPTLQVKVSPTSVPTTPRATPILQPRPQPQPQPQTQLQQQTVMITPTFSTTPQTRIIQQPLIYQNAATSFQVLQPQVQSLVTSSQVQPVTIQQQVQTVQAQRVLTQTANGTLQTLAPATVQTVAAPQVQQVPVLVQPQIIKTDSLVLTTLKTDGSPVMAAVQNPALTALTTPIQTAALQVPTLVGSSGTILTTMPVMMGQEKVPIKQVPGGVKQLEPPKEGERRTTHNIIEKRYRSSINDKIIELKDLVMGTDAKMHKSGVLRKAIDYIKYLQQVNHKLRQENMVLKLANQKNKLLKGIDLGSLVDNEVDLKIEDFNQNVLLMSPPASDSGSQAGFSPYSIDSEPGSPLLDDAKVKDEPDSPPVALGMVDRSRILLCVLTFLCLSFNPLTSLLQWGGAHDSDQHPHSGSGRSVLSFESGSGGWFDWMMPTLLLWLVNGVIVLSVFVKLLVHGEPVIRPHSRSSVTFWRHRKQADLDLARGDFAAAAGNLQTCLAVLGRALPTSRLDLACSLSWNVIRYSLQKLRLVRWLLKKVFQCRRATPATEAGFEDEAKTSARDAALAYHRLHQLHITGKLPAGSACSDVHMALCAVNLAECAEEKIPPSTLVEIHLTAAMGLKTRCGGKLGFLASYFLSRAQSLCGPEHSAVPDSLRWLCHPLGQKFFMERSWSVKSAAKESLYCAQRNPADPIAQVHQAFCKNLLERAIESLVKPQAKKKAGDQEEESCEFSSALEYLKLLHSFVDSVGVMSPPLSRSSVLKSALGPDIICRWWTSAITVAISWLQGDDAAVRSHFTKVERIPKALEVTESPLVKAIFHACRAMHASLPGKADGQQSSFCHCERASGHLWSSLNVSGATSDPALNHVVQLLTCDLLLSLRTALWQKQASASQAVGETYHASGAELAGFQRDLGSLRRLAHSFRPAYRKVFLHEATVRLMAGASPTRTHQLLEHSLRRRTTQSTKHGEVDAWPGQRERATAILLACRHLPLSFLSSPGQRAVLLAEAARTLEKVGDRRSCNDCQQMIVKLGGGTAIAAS

[3] = target: T3, ATF6 alpha (prey34104, hATF6), prey fragments (Human, UniProt P18850 1-670); experiment: as above
T3 construct: also called prey34106
T3 sequence: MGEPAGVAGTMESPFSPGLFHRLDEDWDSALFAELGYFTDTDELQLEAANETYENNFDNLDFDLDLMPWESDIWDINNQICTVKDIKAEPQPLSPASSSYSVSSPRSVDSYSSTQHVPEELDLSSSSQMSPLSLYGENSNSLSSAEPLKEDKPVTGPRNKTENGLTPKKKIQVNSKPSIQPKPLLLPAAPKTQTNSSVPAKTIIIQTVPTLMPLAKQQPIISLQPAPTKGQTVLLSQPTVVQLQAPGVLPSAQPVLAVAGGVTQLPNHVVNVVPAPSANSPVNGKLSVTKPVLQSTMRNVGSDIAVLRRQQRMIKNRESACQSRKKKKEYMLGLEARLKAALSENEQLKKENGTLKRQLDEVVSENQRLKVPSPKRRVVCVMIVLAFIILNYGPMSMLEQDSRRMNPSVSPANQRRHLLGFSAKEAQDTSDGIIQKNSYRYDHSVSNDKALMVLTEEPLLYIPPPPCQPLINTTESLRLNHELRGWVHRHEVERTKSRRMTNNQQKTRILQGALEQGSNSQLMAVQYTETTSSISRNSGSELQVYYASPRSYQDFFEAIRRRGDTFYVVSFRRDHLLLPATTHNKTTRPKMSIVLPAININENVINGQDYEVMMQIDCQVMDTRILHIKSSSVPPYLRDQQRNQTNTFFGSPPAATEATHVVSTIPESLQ

[4] = target: T4, PolyrC-Binding Protein PCBP1 (prey6634), prey fragments (Human, UniProt Q15365 1-356); experiment: yeast two-hybrid screen, bait VPU_v1 (pB27), Human CEMC7 dT Primed prey library; table of bait-prey interactions
T4 construct: also called polyRC BP1; HNRPE1
T4 sequence (Q15365 whole entry, the tested form may be a part): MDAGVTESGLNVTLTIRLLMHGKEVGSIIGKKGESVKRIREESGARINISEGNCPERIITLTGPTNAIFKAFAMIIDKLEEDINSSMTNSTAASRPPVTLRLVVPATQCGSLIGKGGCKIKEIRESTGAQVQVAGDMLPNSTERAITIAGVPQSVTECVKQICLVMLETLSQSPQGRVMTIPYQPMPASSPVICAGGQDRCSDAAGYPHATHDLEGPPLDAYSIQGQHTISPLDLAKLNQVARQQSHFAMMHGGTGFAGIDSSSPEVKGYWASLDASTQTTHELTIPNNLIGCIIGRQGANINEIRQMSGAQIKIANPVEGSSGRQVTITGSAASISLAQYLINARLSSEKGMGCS

[5] = target: Human EIF3S3 (prey024567), prey fragments (Human, UniProt O15372 1-352); experiment: yeast two-hybrid screen, bait IN (pB27), CEMC7 oligo dT primed cDNA prey library; table of bait-prey interactions
Sequence of Human EIF3S3 (prey024567), prey fragments (O15372 whole entry, the tested form may be a part): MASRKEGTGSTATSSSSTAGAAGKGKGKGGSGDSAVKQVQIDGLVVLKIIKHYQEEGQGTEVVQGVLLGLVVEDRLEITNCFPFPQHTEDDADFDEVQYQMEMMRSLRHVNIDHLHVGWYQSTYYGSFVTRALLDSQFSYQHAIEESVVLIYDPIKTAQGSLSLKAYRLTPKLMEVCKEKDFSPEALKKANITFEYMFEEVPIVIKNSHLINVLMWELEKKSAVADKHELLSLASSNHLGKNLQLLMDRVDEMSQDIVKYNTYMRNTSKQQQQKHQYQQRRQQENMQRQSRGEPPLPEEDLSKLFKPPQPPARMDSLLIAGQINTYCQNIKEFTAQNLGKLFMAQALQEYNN

[6] = target: T5, Human HBOA (prey001626), prey fragments (Human, UniProt O95251 1-611); experiment: as above
T5 construct: also called HBO1
T5 sequence (O95251 whole entry, the tested form may be a part): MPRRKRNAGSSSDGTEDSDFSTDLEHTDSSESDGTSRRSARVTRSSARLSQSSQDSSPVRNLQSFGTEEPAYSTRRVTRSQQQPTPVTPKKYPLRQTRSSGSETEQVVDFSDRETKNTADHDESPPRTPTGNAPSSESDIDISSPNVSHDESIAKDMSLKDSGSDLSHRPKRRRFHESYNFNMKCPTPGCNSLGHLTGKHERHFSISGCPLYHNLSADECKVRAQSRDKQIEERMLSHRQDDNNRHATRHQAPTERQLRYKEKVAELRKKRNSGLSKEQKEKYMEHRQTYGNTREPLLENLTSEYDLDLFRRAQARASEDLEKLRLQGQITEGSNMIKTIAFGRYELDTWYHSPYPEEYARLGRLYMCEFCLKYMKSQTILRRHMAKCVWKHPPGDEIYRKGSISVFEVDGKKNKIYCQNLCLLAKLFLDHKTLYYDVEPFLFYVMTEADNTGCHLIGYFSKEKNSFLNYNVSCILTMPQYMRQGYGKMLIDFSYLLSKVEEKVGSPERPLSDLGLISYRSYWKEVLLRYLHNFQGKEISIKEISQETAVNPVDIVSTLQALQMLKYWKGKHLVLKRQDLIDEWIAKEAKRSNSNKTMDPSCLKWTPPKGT

[7] = target: T6, Human RNUT1 (prey024605), prey fragments (Human, UniProt O95149 1-360); experiment: yeast two-hybrid screen, bait IN (pB27), CEMC7 random primed cDNA prey library; table of bait-prey interactions
T6 construct: also called Snurportin1; Snurportin
T6 sequence (O95149 whole entry, the tested form may be a part): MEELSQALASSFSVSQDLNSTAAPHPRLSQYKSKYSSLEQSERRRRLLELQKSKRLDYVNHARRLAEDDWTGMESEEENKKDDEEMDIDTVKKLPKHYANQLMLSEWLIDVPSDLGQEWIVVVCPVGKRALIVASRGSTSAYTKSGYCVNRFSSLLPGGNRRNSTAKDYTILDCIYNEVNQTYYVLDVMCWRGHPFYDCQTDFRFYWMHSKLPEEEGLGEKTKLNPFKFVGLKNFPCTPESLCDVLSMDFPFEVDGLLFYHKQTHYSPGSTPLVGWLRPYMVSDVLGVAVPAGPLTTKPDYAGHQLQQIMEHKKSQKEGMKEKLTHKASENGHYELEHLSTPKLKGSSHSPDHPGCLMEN

B1: cytoplasmic domain of HIV-1 Env TM Gp41, bait TM_v1 (other)
chain: VVLSIVNRVRQGYSPLSFQTHLPAQRGPDRPDGIEEEGGERDRDRSGPLVDGFLAIIWVDLRSLCLFSYHRLRDLLLIVTRIVELLGRRGWGVLKYWWNLLQYWIQELKNSAVSLLNATAIAVAEGTDRVIEILQRAFRAVLHIPVRIRQGLERALL
notes: also called TM cyto; TM Gp41 cytoplasmic domain
B1: binds [1]; binds [2]; binds [3].

B2: HIV-1 Vpu, bait VPU_v1 (other)
chain: LQSLQVLAIVALVVATIIAIVVWTIVFIEYRKILRQRKIDRLINRITERAEDSGNESDGDQEELSALVERGHLAPWDVDDL
notes: It holds the N-terminal transmembrane anchor domain
B2: binds [4].

B3: HIV-1 Integrase (IN), bait IN (enzyme)
chain: FLDGIDKAQEEHEKYHSNWRAMASDFNLPPVVAKEIVASCDKCQLKGEAMHGQVDCSPGIWQLDCTHLEGKVILVAVHVASGYIEAEVIPAETGQETAYFLLKLAGRWPVTTIHTDNGSNFTSATVKAACWWAGIKQEFGIPYNPQSQGVVESMNKELKKIIGQVRDQAEHLKTAVQMAVFIHNFKRKGGIGGYSAGERIVDIIATDIQTKELQKQITKIQNFRVYYRDSRDPLWKGPAKLLWKGEGAVVIQDNSDIKVVPRRKAKIIRDYGKQMAGDDCVAGRQDED
B3: binds [5]; binds [6]; binds [7].

From patent US20060034860A1 (CELLVIR, published 2006)
